Patent publication US20240425572A1 (REGENXBIO, published 2024)

Biological target: T1, fragment of the LEM peptide having the amino acid sequence of LEMPSSLMLEVP (SEQ ID NO: 2)
T1 peptide: LEMPSSLMLEVP
Assay: MSD binding assay (format for the fragment not detailed)
Method: LEM peptide specific rabbit polyclonal and monoclonal antibodies were produced using standard laboratory technologies. Binding affinity of the antibodies was assessed using MSD experiment performed according to the manufacturer's protocols. MSD plates were coated with 1 mg/ml of peptide in PBS and blocked with casein in PBS. Anti-rabbit sulfo-tagged antibody was used as the detection agent. Antibody binding specificity was assessed using control reactions that included the target peptide to inhibit binding. […] None of the antibodies tested can bind to a fragment of the LEM peptide having the amino acid sequence of […] (SEQ ID NO: 2).

binding result: no binding
B1: 130D2-1 (antibody, V domains shown)
VH: QSLAESGGRLVTPGTPLTLTCTVSGVDLSYYPMTWVRQAPGKGLEYIGIILHNGTSCYARWARGRFTISKTSTTVELRITSPTTEDTATYFCARASVASIVGSSDIWGPGTLVTVSS
VL: LVLTQTPSSVSAAVGGTVTINCQSSQSVYKNSALSWYQQKPGQPPKLLIYGASTLASGVPSRFSGNGSGTQFTLTISGVQCADAATYYCTGAINDEIHAFGGGTEVVVR
notes: Rabbit monoclonal IgG; also called 130D2-1 monoclonal anti-LEM antibody; anti-LEM mAb
